Test [1] concerns the target T1, Human OLR1 (human, UniProt P78380 1-273).
T1 construct: also called hOLR1
Kind of test: flow, Jurkat.

Test [2] has as its target T2, Human KLRG1 (human, UniProt Q96E93 1-195).
T2 construct: also called hKLRG1
T2 sequence: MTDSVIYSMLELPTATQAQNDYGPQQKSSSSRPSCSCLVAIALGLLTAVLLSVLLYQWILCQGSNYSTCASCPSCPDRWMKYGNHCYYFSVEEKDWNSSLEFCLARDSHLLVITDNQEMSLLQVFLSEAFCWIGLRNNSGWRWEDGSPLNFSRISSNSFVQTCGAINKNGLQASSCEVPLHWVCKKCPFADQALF
Kind of test: flow, Jurkat.

The target of test [3] is T3, Human Clec5A (human, UniProt Q9NY25 1-188).
T3 construct: also called hClec5A
T3 sequence: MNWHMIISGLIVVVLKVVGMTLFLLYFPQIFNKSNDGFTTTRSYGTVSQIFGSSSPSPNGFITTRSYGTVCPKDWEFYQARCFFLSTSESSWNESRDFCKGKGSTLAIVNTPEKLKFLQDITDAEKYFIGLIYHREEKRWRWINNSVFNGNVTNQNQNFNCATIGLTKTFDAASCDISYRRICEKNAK
Kind of test: flow, Jurkat.

The target of test [4] is T4, Human CD94 (human, UniProt Q13241 1-179).
T4 construct: also called hCD94
T4 sequence: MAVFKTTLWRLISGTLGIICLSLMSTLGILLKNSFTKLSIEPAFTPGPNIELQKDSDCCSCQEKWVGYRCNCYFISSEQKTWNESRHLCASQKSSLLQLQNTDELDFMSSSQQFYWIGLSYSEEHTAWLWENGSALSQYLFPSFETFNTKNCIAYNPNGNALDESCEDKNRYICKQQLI
Kind of test: flow, Jurkat.

The target of test [5] is T5, Human Clec9A (human, UniProt Q6UXN8 1-241).
T5 construct: also called hClec9A
The test is described as follows: flow, Jurkat.

The target of test [6] is T6, Human Clec10A (human, UniProt Q8IUN9 1-316).
T6 construct: also called hClec10A
T6 sequence: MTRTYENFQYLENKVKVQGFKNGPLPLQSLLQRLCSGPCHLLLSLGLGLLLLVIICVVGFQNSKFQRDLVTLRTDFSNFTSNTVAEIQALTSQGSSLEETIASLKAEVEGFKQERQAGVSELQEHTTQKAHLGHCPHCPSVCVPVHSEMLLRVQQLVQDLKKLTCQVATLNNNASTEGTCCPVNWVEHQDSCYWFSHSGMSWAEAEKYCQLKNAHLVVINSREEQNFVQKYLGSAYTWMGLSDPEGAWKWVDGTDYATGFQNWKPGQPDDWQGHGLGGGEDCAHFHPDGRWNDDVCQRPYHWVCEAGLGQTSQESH
Kind of test: flow, Jurkat.

Test [7] addresses T7, Human Clec4E (human, UniProt Q9ULY5 1-219).
T7 construct: also called hClec4E
T7 sequence: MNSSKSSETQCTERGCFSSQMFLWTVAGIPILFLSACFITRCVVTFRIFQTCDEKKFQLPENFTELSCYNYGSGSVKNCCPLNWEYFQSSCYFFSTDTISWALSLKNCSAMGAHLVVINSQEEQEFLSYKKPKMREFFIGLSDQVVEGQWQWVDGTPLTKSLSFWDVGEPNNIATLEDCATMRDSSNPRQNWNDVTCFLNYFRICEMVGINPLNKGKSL
The test is described as follows: flow, Jurkat.

The target in test [8] is T8, Human Clec12B (human, UniProt Q2HXU8 1-276).
T8 construct: also called hClec12B
T8 sequence: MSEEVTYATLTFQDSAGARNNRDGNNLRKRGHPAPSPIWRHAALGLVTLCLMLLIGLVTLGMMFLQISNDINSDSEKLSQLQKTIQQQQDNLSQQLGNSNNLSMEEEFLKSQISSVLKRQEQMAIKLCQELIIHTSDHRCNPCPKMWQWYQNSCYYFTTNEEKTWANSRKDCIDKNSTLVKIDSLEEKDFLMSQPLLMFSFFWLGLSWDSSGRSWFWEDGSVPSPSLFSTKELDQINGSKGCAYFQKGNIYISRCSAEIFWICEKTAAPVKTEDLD
The test is described as follows: flow, Jurkat.

For test [9], the target named is T9, Human CD209 (human, UniProt Q9NNX6 1-404).
T9 construct: also called hCD209
T9 sequence: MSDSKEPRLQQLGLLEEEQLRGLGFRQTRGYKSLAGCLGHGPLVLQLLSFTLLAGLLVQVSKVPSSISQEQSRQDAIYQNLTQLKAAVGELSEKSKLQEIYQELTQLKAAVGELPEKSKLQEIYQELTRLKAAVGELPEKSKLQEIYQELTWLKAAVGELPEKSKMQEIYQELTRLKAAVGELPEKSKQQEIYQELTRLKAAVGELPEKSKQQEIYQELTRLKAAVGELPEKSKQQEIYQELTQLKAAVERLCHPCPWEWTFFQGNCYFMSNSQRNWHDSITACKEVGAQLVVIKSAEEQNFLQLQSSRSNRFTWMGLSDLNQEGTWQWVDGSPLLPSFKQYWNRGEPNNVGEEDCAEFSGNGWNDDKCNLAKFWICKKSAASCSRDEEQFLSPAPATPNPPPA
The test is described as follows: flow, Jurkat.

Test [10] addresses T10, Human Clec7A (human, UniProt Q9BXN2 1-247).
T10 construct: also called hClec7A
T10 sequence: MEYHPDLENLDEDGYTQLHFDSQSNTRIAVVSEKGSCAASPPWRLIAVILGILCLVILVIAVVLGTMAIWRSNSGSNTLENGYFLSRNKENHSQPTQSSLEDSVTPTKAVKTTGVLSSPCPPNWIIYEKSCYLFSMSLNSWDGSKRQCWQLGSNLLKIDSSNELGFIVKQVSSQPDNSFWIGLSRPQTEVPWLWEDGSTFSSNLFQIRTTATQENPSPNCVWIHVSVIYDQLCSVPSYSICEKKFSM
Kind of test: flow, Jurkat.

Test [11] has as its target T2, Human KLRG1. The test is described as follows: flow, Jurkat, 100 nM Ab.
For test [12], the target named is T11, Human KLRF2 (human, UniProt D3W0D1 1-207).
T11 construct: also called hKLRF2
T11 sequence: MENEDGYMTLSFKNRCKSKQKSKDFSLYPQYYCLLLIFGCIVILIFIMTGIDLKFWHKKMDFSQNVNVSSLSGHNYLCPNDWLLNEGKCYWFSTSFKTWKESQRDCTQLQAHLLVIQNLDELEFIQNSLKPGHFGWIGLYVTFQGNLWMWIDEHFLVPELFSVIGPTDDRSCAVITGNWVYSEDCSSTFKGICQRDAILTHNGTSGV
Kind of test: flow, Jurkat, 100 nM Ab.

Test [13] has as its target T3, Human Clec5A. Kind of test: flow, Jurkat, 100 nM Ab.

T5 sequence (Q6UXN8 whole entry): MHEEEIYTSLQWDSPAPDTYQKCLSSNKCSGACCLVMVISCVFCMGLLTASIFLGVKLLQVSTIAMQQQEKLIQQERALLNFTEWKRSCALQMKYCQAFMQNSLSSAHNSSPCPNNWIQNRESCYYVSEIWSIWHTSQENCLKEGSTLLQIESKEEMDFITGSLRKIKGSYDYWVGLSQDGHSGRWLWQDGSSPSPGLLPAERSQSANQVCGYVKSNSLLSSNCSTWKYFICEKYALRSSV

B1: anti-CD161 KW17 (antibody, V domains shown)
VH: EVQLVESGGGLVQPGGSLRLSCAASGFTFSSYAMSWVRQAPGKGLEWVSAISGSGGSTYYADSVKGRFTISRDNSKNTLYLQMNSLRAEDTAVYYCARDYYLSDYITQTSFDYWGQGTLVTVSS
VL: QSVLTQPPSVSGAPGQRVTISCTGSSSNIGAGYDVHWYQQLPGTAPKLLIYGNSNRPSGVPDRFSGSKSGTSASLAITGLQAEDEADYYCQSYDSSHTVFGGGTQLTVL
notes: Human, lambda light chain; scFv-Fc or full IgG not clear; also called KW17-Fc
With B1, the binding result in test [1], in test [2], in [3], in test [4], in test [5] and in [6] was “no binding (tested: 100 nM)” in each case. In addition, the binding result in test [7], in [8], in test [9] and in test [10] was “no binding (tested: 100 nM)” in each case.

B2: KW1.2.1 (antibody, V domains shown)
VH: EVQLVESGGGLVQPGGSLRLSCAASGSTFSSYAMSWVRQAPGKGLEWVSTISGSGGSTYYADSVKGRFTISRDNSRNTLYLQMNSLRAEDTAVYYCARGGLIPSGFDYWGQGTLVTVSS
VL: DIQMTQSPSSPSASVGDRVTITCRASQSISSYLNWYQQKPGKAPKLLIYAASSLLSGVPSRFSGSGSGTDFTLTISSLQPEDFATYYCQQTYSTPLTFGQGTKVEIK
Turning to B2, the entries for the “MFI normalized to WT” value in test [11], in [12] and in test [13] were 1.24, 1.05 and 1.13, respectively. Also, the binding result in test [1], in test [2], in [3], in test [4], in test [5] and in test [6] was “no binding (tested: 100 nM)” in each case. The binding result in test [7], in [8], in test [9] and in [10] was “no binding (tested: 100 nM)” throughout.

B3: KW7.2.2 (antibody, V domains shown)
VH: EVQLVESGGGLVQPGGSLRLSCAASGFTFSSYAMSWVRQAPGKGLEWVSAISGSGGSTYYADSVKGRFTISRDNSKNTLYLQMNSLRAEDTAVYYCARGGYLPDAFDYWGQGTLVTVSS
VL: DIQMTQSPSSLSASVGDRVTITCRASQSISSYLNWYQQKPGKAPRFLIYAASSLQSGVPSRFSGSGSGTDFTLTISSLQPEDFATYYCQQTYSTPLTFGQGTKVEIK
Consider B3, for which the “MFI normalized to WT” value in test [11] came to 1.3; in test [12], 1.12; in test [13], 1.24. The binding result in [1], in [2], in test [3], in test [4], in test [5] and in [6] was “no binding (tested: 100 nM)” in each case. Further, the binding result in [7], in test [8], in test [9] and in [10] was “no binding (tested: 100 nM)” in each case.

B4: KW1.3.12 (antibody, human IgG1, V domains shown)
VH: EVQLVESGGGLVQPGGSLRLSCAASGFTFSSYAMSWVRQAPGKGLEWVSTISGSGGSTYYADSVKGRFTISRDNSRNTLYLQMNSLRAEDTAVYYCARGGLIPSGFDYWGQGTLVTVSS
VL: DIQMTQSPSSLSASVGDRVTITCRASQSISSYLNWYQQKPGKAPKLLIYAASSLLSGVPSRFSGSGSGTDFTLTISSLQPEDFATYYCQQTYSAPLTFGQGTKVEIK
B4: the “MFI normalized to WT” value in [11] worked out at 1.25; in test [12], 1.08; in test [13], 1.19. Besides, the binding result in [1], in [2], in [3], in [4], in test [5] and in test [6] was “no binding (tested: 100 nM)” in each case. In addition, the binding result in [7], in test [8], in [9] and in test [10] was “no binding (tested: 100 nM)” each time.

B5: KW7.3.7 (antibody, V domains shown)
VH: EVQLVESGGGLVQPGGSLRLSCAASGFTFSSYAMSWVRQAPGKGLEWVSATSGSGGSTYYADSAKGRFTISRDNSKNTLYLQMNSLRAEDTAVYYCARGGYLPDAFDYWGRGTLVTVSS
VL: DIQMTQSPSSLSASVGDRVTITCWASQSISSYLNWYQQEPGKAPKLLIYAASSLQSGVPSRFSGSGSGTDFTLTISSLQPEDFATYYCQQTYSTPLTFGQGTKVEIK
For the molecule B5, the “MFI normalized to WT” value in [11] amounted to 1.06; in test [12], 1.03; in [13] it was 1.08. Further, the binding result in test [1], in [2], in test [3], in test [4], in test [5] and in test [6] was “no binding (tested: 100 nM)” throughout. Further, the binding result in test [7], in [8], in test [9] and in test [10] was “no binding (tested: 100 nM)” each time.
